Measured values: article PMC10620215

Target: EcbAgaN (Escherichia coli long-B pAgo-associated nuclease), N-terminal 6xHis tag (Escherichia coli)
Assay: SEC-MALS; EcbAgaN, already purified by SEC, loaded onto Superdex 200 10/300 GL in 20 mM Tris-HCl pH 7.5, 250 mM NaCl, 0.5 mL/min; BSA monomer as standard

stoichiometry N: 2
Substance: EcbAgaN (Escherichia coli long-B pAgo-associated nuclease), N-terminal 6xHis tag (enzyme)
